Changes are numbered by the printed parent chain. Where two headings read alike, the source gives them in different places.
B1: FL-SKNAS-C2-384 (antibody, human IgG1, lambda, V domains shown)
VH: EVQLVQSGAEVKKPGSSVKVSCKASGGTLSSSAISWVRQAPGEGLEWMGGIIPMFDSTNYAQKFQGRVTITADESTSTAFMELSSLRSDDTAVYYCGRDPYYDRLSGGGYMDVWGQGTLVTVSS
VL: SYVLTQPPSVSGALRQTATVTCTGNSSNVGNQGAAWLRQHQGRPPKLLSYRNNDRPSGVSQRFSASTSGNTASLTITGLQSEDEADYFCSAWDSSRSGWVFGGGTKLTVLG
B2: HN1S3-133 (antibody, human IgG1, lambda, V domains shown)
VH: QVQLVQSGPEVKKPGTSVKVSCKASGFTFTSSAVQWVRQARGQRLEWIGWIVVGSGNTNYAQKFQERVTITRDMSTSTAYMELSSLRSEDTAVYYCVADTVYWGQGTLVTVSS
VL: QSVLTQPPSVSEAPRQRVTISCSGSSSNIGNNAVNWYQQLPGEAPKLLIYYDDLLPSGVSDRFSGSKSGSSASLAISGLQAEDEADYYCATWDDSLNAWVFGGGTKVTVLQ
B3: HN1S3-147 (antibody, human IgG1, lambda, V domains shown)
VH: B2 VH with Q105K
VL: not shown
B4: N1wc621 (scFv, V domains shown)
VH: EVQLVQSGAEVKKPGASVKVSCKASGYTFTGYYIHWVRQAPGQGLEWMGWISPNSGVTNYAQRFQGRVTMSRDTSITTAYMELNRLGSDDTAVYYCAREGREDGVLFDYWGRGTLVTVSS
VL: QAVLTQPSSVSGAPGQTVTISCAGSSSNLGAGYDAHWYQHLPGAVPRLLIYNNSKRPSGVPDRFSASKSGSSASLAITGLQPEDEADYYCQTYDTRLSGSMLFGGGTKVTVL
notes: phage scFv
B5: WC-75 (antibody, human IgG1, lambda, V domains shown)
VH: GVQLVQSGGGLVQPGGSLRLSCAASGFTFDDYAMHWVRQAPGKGLEWVSSISWHSRTIAYADSVKGRFSISRDNAKNSLYLQMNSLRPEDTAVYYCAKASYLSTSSSLDYWGRGTLVTVSS
VL: QSVLTQPGSVSGSPGQSITISCTGTSSDVGGYNYVSWYQQHPGKAPKLMIYEGSKRPSGVSNRFSGSKSGNTASLTISGLQAEDEADYYCSSYTTRSTRVFGGGTKLTVLQ
B6: S3-009 (antibody, human IgG1, lambda, V domains shown)
VH: EVQLVQSGAEVKKPGASVKVSCKASGYNFTGYYMHWVRQAPGQGLEWMGWINPNSGGTNYAQKFQGRVTMTRDTSISTAYMELSRLRSDDTAVYYCATDSFDYWGQGTMVTVSS
VL: SYVLTQPPSVSEAPRQRVTISCSGSSSNIGNNAVSWYQQLPGKAPKTLIYYDDLLSSGVSDRFSGSRSGTSASLAISGLQSEDEADYYCAAWDDSLNGVVFGGGTKLTVLQ
notes: also called hN1S3-009; HN1S3-9
B7: WC-168 (antibody, human IgG1, lambda, V domains shown)
VH: B6 VH with Q106R, M109L
VL: not shown
notes: also called N1wc168; hN1wc-168
B8: WC-155 (antibody, human IgG1, lambda, V domains shown)
VH: B6 VH with Q106R, M109L
VL: QSVLTQPPSVSGAPGQRVTISCTGSSSNIGAGYDVLWYRQLPGTAPKLLIYGNTHRPSGVPDRFSGSNSGTSASLAITGLQAEDEADYYCQSYDSSLSGSVFGGGTKLTVLQ
notes: also called N1wc155; hN1wc-155
B9: S3-094 (antibody, human IgG1, lambda, V domains shown)
VH: B6 VH with Q106R
VL: QSVLTQPPSASGTPGQRVTISCSGGSSNIGSNTVTWYQQLPGKAPKLLIYISDQRPSGVPDRFSGSKSGTSASLAIRGLQSEDEADYYCAAWDDSLNGAVFGTGTKVTVLQ
notes: also called hN1S3-094; HN1S3-94
B10: S3-056 (antibody, human IgG1, lambda, V domains shown)
VH: B6 VH with E1Q, V5Q, Q106R, M109L
VL: not shown
notes: also called hN1S3-056; HN1S3-56
B11: WC-173 (antibody, human IgG1, lambda, V domains shown)
VH: B6 VH with M109T
VL: QPVLTQPPSASWTPGQRVTISCSGSSSNIGSNTVHWYRQFPGTAPQLLIYSNNQRPSGVPDRFSGSKSGTSASLAIRGLQSEDEADYYCAAWDDSLNGVVFGGGIKLTVLQ
notes: also called N1wc173; hN1wc-173
B12: hN1wc-179 (antibody, human IgG1, lambda, V domains shown)
VH: B6 VH
VL: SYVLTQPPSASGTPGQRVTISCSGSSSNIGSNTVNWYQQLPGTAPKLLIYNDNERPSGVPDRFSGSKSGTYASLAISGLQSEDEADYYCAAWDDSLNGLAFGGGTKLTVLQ
B13: S3-011 (antibody, human IgG1, lambda, V domains shown)
VH: B6 VH with E1Q, A9P, Q106R
VL: not shown
notes: also called hN1S3-011
B14: S3-013 (antibody, human IgG1, lambda, V domains shown)
VH: B6 VH with Q106R, M109L
VL: QPVLTQPPSASGTPGQRVTISCSGSSSNIGSNYVYWYQKFPGTAPKLLIYTNNQRPSGVPDRFSGSKSGTSASLAISGLRSEDEADYYCAAWDDSLSGVVFGGGTKVTVLQ
notes: also called hN1S3-013; HN1S3-13
B15: N1wc45 (scFv, V domains shown)
VH: EVQLVQSGAEVKKPGASVKVSCKASGYSFRSYGIVWVRQAPGQGLEWMGWISAYNGNTNYAQKLQGRVTMTTDTSTSTAYMELRSLRSDDTAVYYCVRGDRHYDILTGYSPVWFDPWGKGTTVTVSS
VL: SSELTQDPAVSVALGQTVRITCQGDSLRSYYASWYQQKPGQAPVLVIYGKNNRPSGIPDRFSGSSSGNTASLTITGAQAEDEADYYCNSRDSSGNHVVFGGGTKLTVL
notes: phage scFv
B16: N1wc39 (scFv, V domains shown)
VH: EVQLVQSGAEVKKPGASVKLSCKTSGHTFTNYAFHWLRQAPGQRPEWLGWINADNGNTKYSQSFQDRVTITRDISANTAYMEMSRLKSEDTAYYYCARDPWSGVLDHWGKGTLVTVSS
VL: DIQLTQSPSSVSASIGDTVTITCRASQNINKWLAWYQQKPGKAPYLLISTASNLQSGVPSRFSGTGSGTAFTLTISRVQPEDFANYYCQQAFSFPITFGQGTRLEIK
notes: phage scFv
B17: WC-613 (antibody, human IgG1, lambda, V domains shown)
VH: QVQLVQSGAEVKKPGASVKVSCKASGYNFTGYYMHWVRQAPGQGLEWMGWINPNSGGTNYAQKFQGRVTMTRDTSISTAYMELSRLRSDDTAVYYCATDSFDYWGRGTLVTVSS
VL: SYELTQPPSASGTPGQRVTISCSGSYSNIGSNYVYWYQQLPGTAPKLLIYTNNQRPSGVPDRFSGSKSGTSASLVISGLRSDDEGDYYCAAWDDSVSVLLFGGGTKVTVLQ
notes: also called N1wc613; hN1wc-613
B18: WC-629 (antibody, human IgG1, lambda, V domains shown)
VH: EVQLVQSGAEVKKPGSSVKVSCKASGGTLSSYTVSWLRQAPGQGLEWMGRIIPILDRANYAQKFQGRVTITADKSTSTAYMELNSLRSDDTAVYYCARSIGAAGDGVWFDPWGQGTMVTVSS
VL: QAVLTQPSSVSGAPGQRVTISCTGSSSNIGAGYDVHWYQQLPGTAPKLLIFDNKNRPSGVPDRFSGSNSGTSASLAITGLQAEDEAEYYCQSYDNNLSGRVFGGGTKLTVLQ
B19: A673-C2-110 (antibody, human IgG1, lambda, V domains shown)
VH: QVQLVQSGTEVKKPGASVRVSCKPSADTFTSYYVHWVRQAPGQGLEWMGTINPTGTYTRYAQQFQGRVTVTRDTSTSSVYMELSSLRSEDSAVYYCARDVRPYTAMYSFDNWGRGTTVTVSS
VL: SYVLTQPPSVSVSPGQTATITCSGDALPKQYANWYQQKPGQAPVLMIYKDSDRPSGIPERFSGSSSGTKATLTISGVQAEDEADYYCQSADNSGTNYVFGTGTKLTVLG

Columns and labels:
[1] = target: T1, human Notch3-Gal4 chimeric receptor on U2OS FlpIn TREx cells (human, UniProt Q9UM47 40-2321); assay: cell-based or functional assay
[2] = target: T2, Notch1 extracellular fragment (amino acid 19-526) Fc fusion protein, R&D Systems 3647-TK (human, UniProt P46531 19-526); assay: BIAcore SPR, Notch1/Fc on CM5, Mab analyte, 1:1 binding
T2 construct: bought protein; also called Notch1/Fc; Notch1-ECD Fc fusion protein; not shown: Fc of the bought fusion protein
Description: All experiments were performed at 25° C. at a flow rate of 40 μl/min. […] FC1 was used as the reference cell. Specific signals were the results of differences of signals obtained on FC2 versus FC1. […] The dissociation phase of the analyte was monitored over a period of time ranging 10-30 minutes. Running buffer was also injected under the same conditions as a reference.
Equilibrium dissociation constant (KD) was calculated by the ratio between dissociation (koff) and association (kon) rate constants.

[3] = target: T3, human full-length Notch3 with C-terminal FLAG tag, stably expressed on 293 FlpIn (TREx) cells (human, UniProt Q9UM47 40-2321); assay: FACS, phage scFv
T3 construct: whole, on cells; made by the same strategy as the Notch1 line; also called 293-N3; hN3

[4] = target: T4, human full-length Notch1 with C-terminal FLAG tag, stably expressed on 293 FlpIn (TREx) cells (human, UniProt P46531 19-2555); assay: FACS, phage scFv
T4 construct: tetracycline/doxycycline-induced expression from pcDNA5/FRT/TO-HN1+FLAG; also called hN1; 293_N1

[5] = target: T1, human Notch3-Gal4 chimeric receptor on …; assay: cell-based or functional assay; remark: listed apart in the source
[6] = target: T4, human full-length Notch1 with …; assay: FACS, hN1 293 cells, MFI grade (++ 101-500)
Description: (§1) Notch 293 FlpIn (TREx) cells were treated with dox (2 ug/ml) for two days to induce Notch expression before collecting them for FACS surface expression analysis. The cells were harvested from tissue culture flasks using Trypsin for 15 min, centrifuged at 1200 rpm for 10 minutes and resuspended in 2 ml PBS with 2% fetal bovine serum (2% FBS/PBS). The cells were counted, adjusted to 10⁷ cells/ml and 0.1 ml of cells was incubated with 1 ug of each Mab for 40 minutes at 4° C. The cells were washed, resuspended in 0.1 ml 2% FBS/PBS and incubated with 1 ug R-PE-conjugated goat anti-human Ig (Jackson ImmunoResearch) for 30 minutes at 4° C. Cells were washed, resuspended in 0.3 ml PBS with 10% formaldehyde and analyzed on a FACSCalibur (Becton Dickinson, Mt View, Calif.).

[7] = target: T4, human full-length Notch1 with …; assay: FACS, hN1 293 cells, MFI grade (+ 11-100)
Description: as §1

Row | Binder | hN3, inhibition of Luc activity at [166 nM] Mab [1] [%] | Kd [2] [nM] | koff [2] [s⁻¹] | kon [2] [M⁻¹ s⁻¹] | binding result [3] | binding result [4] | hN3, inhibition of Luc activity at [166 nM] Mab [5] [%] | MFI [6] [mfi] | MFI [7] [mfi]
1 | B1 | < 5 |  |  |  |  |  |  |  | 
2 | B2 |  | 0.649 | 0.0004 | 616000 |  |  |  |  | 
3 | B3 |  | 0.269 | 0.000285 | 1.06e+06 |  |  |  |  | 
4 | B4 |  |  |  |  | binds | binds |  |  | 
5 | B5 |  |  |  |  |  |  | < 10 |  | 
6 | B6 |  | 5.23 | 0.00268 | 513000 |  |  | < 20 | 101 to 500 | 
7 | B7 |  | 4.7 | 0.00228 | 486000 |  |  | < 10 |  | 11 to 100
8 | B8 |  | 1.74 | 0.00029 | 166000 |  |  | < 10 | 101 to 500 | 
9 | B9 |  | 3.89 | 0.00163 | 420000 |  |  | < 10 | 101 to 500 | 
10 | B10 |  | 5.65 | 0.00292 | 517000 |  |  | < 10 |  | 11 to 100
11 | B11 |  | 3.27 | 0.000447 | 137000 |  |  | < 20 | 101 to 500 | 
12 | B12 |  | 7.36 | 0.00363 | 493000 |  |  |  |  | 
13 | B13 |  |  |  |  |  |  | < 10 | 101 to 500 | 
14 | B14 |  | 4.92 | 0.00294 | 597000 |  |  | < 10 |  | 11 to 100
15 | B15 |  |  |  |  | binds | binds |  |  | 
16 | B16 |  |  |  |  | binds | binds |  |  | 
17 | B17 |  | 1.09 | 0.000258 | 237000 |  |  | < 10 | 101 to 500 | 
18 | B18 |  |  |  |  |  |  | < 10 |  | 
19 | B19 | < 10 |  |  |  |  |  |  |  | 
